Measurements published in patent publication US20050113293A1.
One block for each molecule: values may come before it. [ ]: non-standard residue; d: D form. Hyp = O=C(O)[C@@H]1C[C@@H](O)CN1

Legend:
[1] = molecular target: binding site for [125I]AAP10 on intact CHO cells (AAP receptor); experiment: cell-based or functional assay
[2] = molecular target: binding site for [125I]AAP10 in murine heart tissue preparations (AAP receptor) (mouse); experiment: displacement of 0.8 nM [125I]AAP10, murine heart membranes
[3] = molecular target: binding site for [125I]AAP10 on intact CHO cells (AAP receptor); experiment: in situ displacement of [125I]AAP10 on intact CHO cells
[4] = molecular target: binding site for [125I]AAP10 in murine heart tissue preparations (AAP receptor) (mouse); experiment: displacement of 0.8 nM [125I]AAP10, murine heart filtrate

- Inhibition of forskoline stimulated cAMP formation in CHO cells, EC50 [1]: 11 nM
- IC50 [3]: 130 nM
- IC50 [4]: 1.2 nM
Molecule: H-GAG[Hyp]PY-NH2 [H-Gly-Ala-Gly-Hyp-Pro-Tyr-NH2 (AAP10)]

- Inhibition of forskoline stimulated cAMP formation in CHO cells, EC50 [1]: 53 nM
- IC50 [3]: 0.8 nM
- IC50 [4]: 1.2 nM
B1: H-Gly-Pro-Hyp-Gly-Ala-Gly-OH (AAP) (peptide)
peptide: H-GP[Hyp]GAG-OH
SMILES: C[C@H](NC(=O)CNC(=O)[C@@H]1C[C@@H](O)CN1C(=O)[C@@H]1CCCN1C(=O)CN)C(=O)NCC(=O)O

The next lines start with the molecule.

Molecule: Ac-D-Tyr-D-Pro-D-4Hyp-Gly-D-Ala-Gly-NH2 (Compound 2) (peptide)
- Inhibition of forskoline stimulated cAMP formation in CHO cells, EC50 [1]: 6.2 nM
- IC50 [2]: 1.2 nM
- IC50 [3]: 0.5 nM
- IC50 [4]: 3.6 nM

Molecule: Ac-D-Tyr(3,5-di-I)-D-Pro-D-Hyp-Gly-D-Ala-Gly-NH2 (Compound 24) (peptide)
- IC50 [3]: 65 nM

Molecule: {ASAL(mono-iodo)}-P[Hyp]GAG-NH2 [ASAL(mono-iodo)-Pro-Hyp-Gly-Ala-Gly-NH2 (Compound 32)]
- IC50 [3]: 0.5 nM
